Measurements taken from the supplement of paper PMC10567573.

B1: KRT18 (parent)
chain: PQVRDWSHYFKIIEDLRAQIFANT

Variants of: B1
Test: protein stability index of a GFP-peptide fusion (GPS, HEK-293T) (PSI 1-6); higher = more stable
Conditions: c terminus: a fixed tail appended
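Also: lentivirally expressed fusions sorted by FACS into six bins by GFP to DsRed ratio, PSI derived from sequencing read proportions per bin multiplied by bin number.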

Protein stability index, by site and new letter:
Q19: Y 1.65; N 2.56; I 1.42; V 1.59; A 2.05; R 2.45; S 2.67; C 1.86; W 2.39
N23: L 2.53; H 2.35; S 2.33; Y 1.56; D 2.43; T 1.56; F 1.22; K 2.06; A 1.86
H8: T 1.6; R 1.98; L 2.43; M 2.28; Y 2.08; N 2.24; E 2.49
Q2: N 2.41; D 2.04; V 3.24; C 2.67; R 1.77; H 2.17; S 2.42; G 2.29
Y9: H 2.5; C 1.97; A 2.24; N 2.71
L16: K 1.85; P 2.38; D 2.22; I 2.03; F 1.53; C 1.7
S7: W 1.95; K 2.36; Q 3.49; R 1.99; M 2.18; F 1.41; L 1.52; E 2.12; T 2.82; V 2.53
F21: V 2.39; S 2.32; I 1.91; L 2.7; C 1.97; M 2.16
A18: C 1.94; E 2.7; L 2.29; G 1.9; D 2.44; V 1.97; M 1.81; Y 1.77; W 2.34
K11: P 1.55; Q 2.5; V 2.99; G 1.74; C 2.12; S 2.75; M 1.42
R17: A 2.14; Y 1.51; N 2.64; W 1.97; D 2.4
F10: I 2.23; Q 3.22; H 2.57; A 2.29; W 2.7; T 3.01
I12: G 2.72; L 2.27; H 2.36; C 2.38
E14: P 1.67; A 2; T 2; L 1.39; S 2.26; H 2.69
D5: I 2.46; Y 2.15; H 1.68; A 2.93; E 2.8; K 3.2; F 1.88; S 2.5; M 2.57; N 2.16
A22: I 2.5; C 1.9; G 2.51; S 2.17; V 2.01
W6: L 2.22; C 1.88; N 2.18; T 3.16; S 2.14; A 1.69; D 2.61; E 2.97
P1: W 2.86; E 2.13; N 2.5; M 2.12; I 2.24; G 1.94
T24: F 2.34; K 2.53; D 2.75; E 3.47; P 2.84; M 2.81; V 2.04; Y 1.72; W 2.27
I13: D 2.9; H 2.16; P 2.63; N 2.38; A 2.77; Q 2.75; K 1.79; G 2.9
V3: I 2.05; L 2.88; D 2.39; T 2.24; A 1.71; H 1.94; Y 2.69; S 2.44; N 2.06
R4: F 1.6; A 3.02; Q 2.53; D 2.84; P 2.47
I20: N 3.05; R 2.75; K 2.7; G 2.9; T 2.83; E 2.86; H 1.89
D15: K 3.02; T 1.78; H 1.57; I 1.74
